Columns and labels:
[1] = molecular target: CaM-agarose (Sigma) (UniProt P62157); assay: pull-down; CaM-agarose (Sigma) incubated with HEK293 lysate expressing a V5-His-tagged TRP channel; 20 mM Tris-HCl pH 7.4, 150 mM NaCl, 1% NP-40, 4 °C; 1 mM Ca2+ (Fig. 2A) or 2 mM Ca2+ (Fig. 2B); blot with anti-V5
[2] = molecular target: HA-tagged CaM3 mutant (rat) (UniProt P0DP29); assay: co-IP; HA-CaM or mutants co-expressed with TRPA1-V5 in HEK293; IP with anti-HA.11 and Protein A/G PLUS-Agarose in 2 mM Ca2+; blot with anti-V5; band intensity by ImageJ, normalized by total TRPA1
[3] = molecular target: HA-tagged CaM12 mutant (rat) (UniProt P0DP29); assay: as above
[4] = molecular target: HA-tagged CaM4 mutant (rat) (UniProt P0DP29); assay: as above

Sequence of TRPA1-V5-His (×6) (Q8BLA8 whole entry): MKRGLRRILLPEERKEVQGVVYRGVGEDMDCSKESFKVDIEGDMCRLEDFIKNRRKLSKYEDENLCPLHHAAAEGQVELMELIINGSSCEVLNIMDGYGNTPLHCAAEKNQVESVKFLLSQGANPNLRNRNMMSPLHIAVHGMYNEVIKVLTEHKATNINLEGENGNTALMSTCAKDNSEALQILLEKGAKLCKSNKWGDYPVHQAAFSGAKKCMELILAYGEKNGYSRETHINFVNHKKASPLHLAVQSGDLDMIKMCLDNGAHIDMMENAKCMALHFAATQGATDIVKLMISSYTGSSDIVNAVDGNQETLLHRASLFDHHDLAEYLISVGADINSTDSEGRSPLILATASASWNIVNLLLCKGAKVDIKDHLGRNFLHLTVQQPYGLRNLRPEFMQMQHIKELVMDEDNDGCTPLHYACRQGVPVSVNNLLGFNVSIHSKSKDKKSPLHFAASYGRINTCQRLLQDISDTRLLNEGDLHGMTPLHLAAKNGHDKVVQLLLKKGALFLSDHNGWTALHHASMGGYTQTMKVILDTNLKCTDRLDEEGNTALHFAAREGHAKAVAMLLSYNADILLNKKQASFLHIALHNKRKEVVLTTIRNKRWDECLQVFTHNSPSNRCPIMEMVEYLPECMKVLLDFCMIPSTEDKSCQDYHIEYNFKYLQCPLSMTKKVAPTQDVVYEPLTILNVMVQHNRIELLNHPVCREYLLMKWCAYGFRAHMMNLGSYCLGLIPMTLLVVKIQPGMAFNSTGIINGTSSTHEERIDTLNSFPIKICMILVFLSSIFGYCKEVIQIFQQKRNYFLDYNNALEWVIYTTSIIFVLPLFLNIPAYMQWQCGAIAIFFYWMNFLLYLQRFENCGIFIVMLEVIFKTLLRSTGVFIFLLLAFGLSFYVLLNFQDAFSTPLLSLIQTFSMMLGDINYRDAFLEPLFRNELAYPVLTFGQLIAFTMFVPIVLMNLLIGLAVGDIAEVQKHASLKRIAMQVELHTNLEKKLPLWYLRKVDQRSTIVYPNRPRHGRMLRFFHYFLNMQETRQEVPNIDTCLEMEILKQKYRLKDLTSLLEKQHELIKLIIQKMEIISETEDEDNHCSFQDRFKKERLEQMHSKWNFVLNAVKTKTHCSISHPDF

| Substance | relative binding to CaM (normalized by total input) [1] | percent reduction in TRPA1-CaM binding against wild-type CaM [2] [%] | percent reduction in TRPA1-CaM binding against wild-type CaM [3] [%] | percent reduction in TRPA1-CaM binding against wild-type CaM [4] [%] |
| --- | --- | --- | --- | --- |
| TRPV3 (V5-His tagged) (natural protein) | 0.2 |  |  |  |
| TRPA1-V5-His (×6) (from UniProt Q8BLA8 1-1125) (natural protein) |  | 60 | 40 | 87 |

Source: publication PMC5362816
